In a protein production outcome set (Wang et al. 2014):

Assay: label from the status in PepcDB records

Sequence | protein production
VVIQFYEERLTWHTGSGNGNGNTNSVNLGSSGGLGSVGGSGAGDDTAPGSVGTTGGGSNIDGGDEEDPEPASPIGSINQDENIKPDESSELDNGQPDADD | failed
MLTTFIVNSPILASIVFTLITIATYQFASACQQKWQYIWLNPMLFTISILVPFLLLIDINYQEYSQTTEILNLLLEPAIVALGMPLYQQFKQIRFYWREMTAILVLGITVVITVSFLLAMWLIKAPEIAIALSLKSVTTPIGITLTEQLFGDSSITAFAILIAGLFGALLGPQWLSFIGINSAKAQGLAIGSASHVIGTAVLVRKSAEHGAYSSVALILSAILTALISPWLIPLLQRLVT | failed
MLIITYISACILFLVSFSHVYWAFGGNWGTNSVIPTKAGEKAFTPRAGMTLVIALLLSMAAIILLQQANIVHFAVPNVIIQVGSWICMIVFSIRVIGEFNYFGIFKRQKDTHFARMDTGLYIPLCAFLSLSFLLAIIL | failed
MLMDGHTHTELCPHGSGEATEKMIQRAIQLGFQRYCITEHAPLPPAFRDQYEGTPAGYTEASLRENQVADYLALANGLKTKYAGQIEISVGFEVDFLPEHVAWTRDFLNTYGPRTQESILSVHFMRGLRQHFWCVDMSTDDFAAGFGQWLKTPQRVFEQYYQTVLASVQADLGPYAPQRIGHMSLVRKYQDYFGLTEPLDVHNLQLVDQTLALVKQQRRQLDLNLAGLYKPYCNDFYPGEQILQRAQKLDIPLVYGSDAHDIASVGRGYHLIKKLIEGLEHHHHHH | failed
MILPEYNETDFMQAVINAAPTPIFYKDAQGRYLGCNKAFEEYIGLNREQLIGKSVLELFDDELARTYFEADNALFERKGTQIYEAKVEYADGTTHDVMFHKAYFHAEGIEGIVGSILDITERKKAEKSLEQLALSDSLTGLDNRYSLMKSLKHSLLRQHRENFTLAFLMLDLDGFKQINDNYGHPVGDALLIEVANKLKNHFRESDVIARVGGDEFSVILENIHSTESLIVLANNILAEFLKPFVIDNNKFTIGISIGIATSSFSECSSEDIIKHADAALYQVKNSGKGSYHLTVVN | failed
EKAVLIGEKEADITFVTWGSQKGPILDVIEDLKEEGISANLLYLKMFSPFPTEFVKNVLSSANLVIDVESNYTAQAAQMIKLYTGIDIKNKILKYNGRHMTEDEILKSAKEILNKESLMVVLEDGS | failed
KKPLSVFKGPLLHISPAEELYFGSIESGEKKTLIVLTNVTKNIVAFKVRTTAPEKYRVKPSNSSCDPGASIDIIVSPHGGLTVSAQDRFLIMAAEMEQSSGTGPAELSQFWKEVPRNKVMEHRLRCHTVESSKPNSLML | not failed
MFGLEAIDLARIQFAFTVSFHIIFPAITIGLASYLAVLEGLWLKTNEEVYRDLYHFWSKIFAVNFGMGVVSGLVMAYQFGTNWSHFSDFAGSITGPLLTYEVLTAFFLEAGFLGVMLFGWNRVGPGLHFFATVMVAIGTLISTFWILASNSWMQTPQGFEIVDGRVIPVDWLAVIFNPSFPYRLLHMSVAAFLATAFFVGASAAWHLLRGRDNPAIRKMLSMAMWMALIVAPVQALIGDAHGLNTLEHQPAKIAAMEGHWDNSSGEPTPLILFGWPDMQREETRFKVEIPVLGSLILKHSLTEPIPALKDFPPEDRPNSTVVFWSFRIMAGLGMLMILVGVWSLWLRWRGQDKLFNSKAFLRLTLLMGPSGLIAILAGWFTTEMGRQPWVVYGLMRTADASSAQSVTQMSLTLLTFVVVYFSLFGVGIGYMMRLVRKGPVTHEGRETNPGGAGQKRTPARPLSAAGEGFDEEHDGHAQAADRDQDKRN | failed
MALVRKDVVKLAAPIFVEQLFVTLMGMINTMMAGHIGKEAVSAIGMIDSINNIFIAFFSALAVGGTVVVAQYIGQNNIKKANESTKQALYSTIIIAFVITIIMAILKGPLLGFLFGSAEKEVILDANSYFGITLLTYPLITIDLVSNGILRGAGDTKTPMKISILMNVLNVAFTALFIWGIKINGTVVVKSLGITGAALGIATARTIGGIIILIVMVRGSRIVQLKKLTEFKFDMTLLKPIFGIGVPASVESLLFNGGKLIMQIFIVGMGTVAMASNTIVNSISNFLNIPGNSLVIAATALVGQHMGRDDDKGAEKCLSYITKLSTVLLAIVGILSILFSRHLPSPVYWK | failed
EQLPVLQTVPFAGSAEPVSLTRESVERSVGEANMQEQRKRVHAMLRDYELQLRINSDASQQDAHLTPDSE | not failed
MDLIHEKVFVNRYHYDVRNHEWEKENGVPKTNVEVTFQLHHKDKEANNTSVVAVLQFMIVRDEFVISGIVSQMNHIQNRIVNNPKDFSQEEAEYLAAPLLDTLQRLTYEVTEIALDRPGINLEF | not failed
MCWVCGENLQAQPYMFRNVVMSDGLSGLLVNAIYKDSEGFIWLGTDNGLDRFDGVKVKHFEFRGVDSGRKKRVNCITETDNKQLWIGNGIGLWRLNRSGSELQRIVPEKIDCAVNALLADGDVLYIGTERGLFIQKDGQLLQVQTDKNMLAACNRIMDLCLNEDKSVLWLATVQGLFSYSLKDGQINSWHFRENVPEADYFRCLTRIGETLYLGTMSQGVVCFDIPKQTFAHTVSLGCDVISDISGDGKETVYIATDGNGVHFLSHKDRKVVRRFFHDVNDKEGIRSNSIYSLLVDDRGAVWVGHFQAGLDYSLYQNGLFRTYAYPPQFNSANLSIRSFVNRGPEKVIGSRDGLFYINEATGIVKSFVKPVLTSDLILTICFYEGEYYIGTYGGGMMVLNPQTLSLKYFTQGDTELFQKGHIFCVKPDNRGNLWIGTSQGLFCYNGQTKQIKNFTSTNSQLPEGNVYEVSFDSTGKGWIATETGMCIYDPASQSLRSNVFPEGFVHKDKVRTIYEDAEHNLYFIREKGSLFTSTLTMDHFRNQSVLSTLPDNSLMSITEDNQGWLWVGCNDGLLRIKEEGEEYDSFTFNDGVPGPTFTNGAAYKDERGLLWFGNTKGLIYVDPKQVDEVRGKVRPIVFTDILANGVSINKSSLKYNQNNLTFCFTDFAYGLPSALLYEYKLEGADSDWKLLTAQSEVSYYGLSSGTYTFCVRIPGNEQSMAIYKVTVQPMIPWWGWVILAISIILIVVLVRYYVRKSAPLVTEVHEISSEEEEEEEKTAEPHPAEEKYKANRMSEAECKELHDRLVAYVEKEKPYINPDLKMGELAAALHTSSHSLSYLLNQYLNQSYYDFINEYRVAQFKKMVEDSDYSRYTLTALAELCGFSSRASFFRSFKKSTGVTPNEYIRSIGGTAKDE | failed
MVRVPLTAEELERGQRLGELLRSARGDMSMVTVAFDAGISVETLRKIETGRIATPAFFTIAAVARVLDLSLDDVAAVVTFGPVSTS | not failed
MLDPARGYDLIGDVHGCAHTLEHLLELLGYRLQAGVWRHPERIAIFLGDIIDRGPRIRESLHIVRDMVQAGQAYCIMGNHEFNALGWMTPALPESGHLFVREHTPRHARLIGETLAQFEAYPDEWNEFVNWFYELPLYIDAGRFRVVHACWDATLIDPLRGLHGTGCIDRHFVQASAVPGSFASNVFNRLLRGTDMRLPHGLTLTGGDGLTREFFRTKFWEDNPQTYGDVVFQPDALPEGVAKTPLSTSEKNALLRYGSNEPLLFVGHYWRSGIPAPIRPNLACLDYSAVLYGKLVAYRLDQETHVDPDKFVWVDVQRPEVSP | failed
MLHTEKVEYVNQAHEDITGIARDKSIGTNLRDLTFFRQHNALAEQTLAKIFRGDQAKGEVQFSRTDGSRYWLKYIVSQFITDRGNHYALVSGEENSDEHLEHHHHHH | failed
LSPPRGLVAVRTPRGVLLHWDPPELVPKRLDGYVLEGRQGSQGWEVLDPAVAGTETELLVPGLIKDVLYEFRLVAFAGSFVSDPSNTANVSTSGL | not failed
MRTALLEVGLEELPASEFHSILKQLEEKSAELLKAYRVSSGSVEVFVGSRRFGVILKNLPERQEDFTEEKKGPPLNVAYDENGKPTRALEGFLRNNNASLENVVHREGYVYLSRVVEGKPVEEVLPDLFRDLVLGLNFRKPMRWGSGEHEYIRPVHWIVAMVDGRVLDLEIFGLRSSRISYGKRYHAGSIEIPDSERYYESLKKGFVISSHLERKKFVLEQIDEFEKRSSMKIERDEELIEEIVAITEYPRIVVGQFDRKYLELPEEIIVTAVKHHQRSFIAHKGTLTNTFVAFQDGPQPPENVVKGYERVINARLEDARYYFQKDLETPLEKMNEKLKEIVFQEKLGTLYDKVERIKKISQRLCEDLKLPGSFTQKVLEAASICKADIASKVVYEFPELQGVMGRIYALREGINEEIATAIEDHYSEEPQTVIGSILGIADRIDTIVGNFAIGNVPTSSKDPYGLKSKADTIFRIIRKNEWDISLEELLTFASSLVGYRLSEELETFFAGRFYQFLINELGISFDVARAVNHLWKKPLR | failed
MRLVERHIVKTNHQFYKEIDDLAWRSKNLYNYVNYLVRQSFIFDGKYLNNAAIFHLVKHHESYTALPRKVSNQVLMVLHRNWKSFFETHKAYKQNPSKFKGCPKLPKYKNKEKGRNIVIYELGAISKPLLKQGVIKLSQTEIQFPTKASNIQQVRLIPQCGQYVVEVVYLQDATPQQLNPDWVAGIDIGLDNLAALTSNKPGFKPVLVNGRPLKAINQQYNKAKARLQSQLKGNAKTSRRIQALTCKRNNRIDNYLHNASRWIINHLASAGIGTLVIGKNDQWKQEINLGTTTNQNFVSIPHARFIEQLKYKAELVAMTVLINEESYTSASSFLDLDPIPVYQEGVKHSFSGKRIKRAWYQSANGRFIHADINASLNITRKVVPAAFSLGIAGIAVCPSRITPGKVAI | failed
MQESVVRVDYDSLETCKNFKPSVGTELIVLEKDIAHARFKGNESMVYEENFVHAGFVLIACNYAALCALNKRHSVVVSNNINFYAPLELNQEALIKAQVIQDGVKKAEIKIEAFVLDIQVLEGMIEIVVFDKKPFKFNFKEE | failed
MLPKIIDLFSGCGGLALGFEKAGFDIVAGIELMPEACKTISYNLSWRYGKKETHICGDITEIEASVFKNSFGDEGCIVIGGPPCQAYSMAGRGKLRSLGEDRVNIKDARGYLYQDFLRFVFELEARAVVMENVPESTNFGGKNIPEIVCTELTKKGYKAYWTILNSADYGVPQVRERVFVVAIKGDEGKEIKLPNPTHRNEVDVLTQHQKRFEGYKQCQFFVEPNGTTDELKPWVTVGDAFSDLPEVFPTADSKYKLVSLNIEYPYKTEAQNEYQELMRTWYGKEGFGVSANAFRRNTRDFPIFERMQQGDNYIAATKIAEELFYEEAKLFGYEKDSEEYISLYNKMVPQYDKDKFENKWKRLDETKPSHTLVAHLAKDTYSHIHPIEPRGITVREAARLQSFPDDFFFDCSMGDAFKQIGNAVPPLLAYGVARTVLNTFEEE | failed
PATPKKIKKEKKVPKLPRKDYWQAAMVIIISSIVLIASLFMISPLSRQKEITVSGNKNAIESQLIEELGIKKSDYLTTLLFQANRFERNLKSKDKWVKEAKLVYHFPNHFTLRVKEYRIIAYRQTDKGYVPILENGTRVDTVNASELPGSFVTINLDQEKEVRELVQKLAKLDKSLVGSIKVISSVNSSSTKDLLLLEMKDNNSVRVPLSEIDTKLPYYSKIKKNLTDGSIVDMEVGIYSTTADIEASIAEHKTTATTESSENS | failed
AEEKKEDEFKTIKIEKLDGGITKLVLNRPDRLNTISPEVLDEIDRAITQLWNDKDTRVIVITGAGDRAFSAGADLGGSIITHPFDFLEHNRKGERVFTRLREIPKPVIAAINGYALGGGLEIAMNCDIRLAKKSAVLGLPEVGLGILPGWSGTQRLVKLVGISRAMQLALTGERITAEEAERWGLVNKVFDDDKFEEEVMNYAKNIAERCAPISMALIKRLINKGGEVPMDIGLEWECTAAGLLFATEDMREGISAFLRKDKPQFKGR | failed
MKLTLRKKLLEKVENTTETPMLILSVVYVVVALLPDIAVLSPDDLEFLDGLLWIVWGIFATELLVKIFVSPKPLQYMMQNWPDVLIVAMPFLRPLRFLRILLVLPKAWRQTKSVLRQKTFSFIGLTSLSTVLLSAAFVYLVEKGTPSPINSYADALWWAMSTITTVGYGDMYPVTGFGRGVAVFLMLTGITLFGLLTASVASFFVEDDTAKQDHLSLNLLLEKNQQLETQLNQLVETQQPRKRFHLASYRRQLAERETVRKNQKPKRRRIKLPSQDNRNA | failed
